Experimental data as given in US20250163167A1 (SYNTHEKINE, published 2025).
Residue numbers refer to the chain shown, from its start.

T1: hIL10Rb ECD antigen (human, UniProt Q08334 20-220)
T1 construct: Antigen of biopanning and PE-ELISA; also called extracellular domain of hIL10Rb
T1 sequence: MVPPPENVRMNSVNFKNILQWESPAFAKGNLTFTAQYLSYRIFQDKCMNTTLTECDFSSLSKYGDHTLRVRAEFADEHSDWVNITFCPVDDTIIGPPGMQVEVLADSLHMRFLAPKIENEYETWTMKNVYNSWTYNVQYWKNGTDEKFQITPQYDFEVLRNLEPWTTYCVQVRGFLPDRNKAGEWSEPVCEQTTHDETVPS

T2: human IL-10 receptor (hIL-10R alpha and beta chains) on HEK-Blue IL-10 reporter cells (human, UniProt Q13651 22-578; Q08334 20-325)
T2 sequence 1: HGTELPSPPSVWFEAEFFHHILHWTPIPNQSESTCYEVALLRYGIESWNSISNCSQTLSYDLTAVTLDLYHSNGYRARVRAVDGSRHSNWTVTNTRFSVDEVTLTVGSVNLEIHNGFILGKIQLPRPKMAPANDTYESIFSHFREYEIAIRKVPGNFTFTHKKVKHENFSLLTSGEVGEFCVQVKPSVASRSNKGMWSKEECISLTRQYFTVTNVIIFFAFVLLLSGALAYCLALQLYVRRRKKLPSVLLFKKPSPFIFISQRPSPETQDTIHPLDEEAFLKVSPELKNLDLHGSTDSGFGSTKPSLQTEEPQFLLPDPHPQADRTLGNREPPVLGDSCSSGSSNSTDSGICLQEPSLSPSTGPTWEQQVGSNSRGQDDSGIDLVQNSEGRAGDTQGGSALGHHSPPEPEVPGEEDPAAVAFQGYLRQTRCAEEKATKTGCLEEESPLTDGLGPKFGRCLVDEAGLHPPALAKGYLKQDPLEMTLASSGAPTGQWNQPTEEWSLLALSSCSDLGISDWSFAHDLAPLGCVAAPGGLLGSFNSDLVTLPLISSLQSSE
T2 sequence 2: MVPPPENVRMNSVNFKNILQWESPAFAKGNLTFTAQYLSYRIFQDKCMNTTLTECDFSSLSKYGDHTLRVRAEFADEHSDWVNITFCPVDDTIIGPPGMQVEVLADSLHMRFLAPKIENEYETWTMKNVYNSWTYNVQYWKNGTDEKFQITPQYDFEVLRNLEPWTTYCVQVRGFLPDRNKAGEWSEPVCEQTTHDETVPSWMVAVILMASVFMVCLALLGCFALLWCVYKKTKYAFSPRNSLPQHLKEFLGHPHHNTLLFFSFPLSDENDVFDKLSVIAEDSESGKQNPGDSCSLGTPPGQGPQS

B1: hIL10Rb VHH-2 (VHH)
VHH: QVQLQESGGGSVQAGGSLRLSCAASGYTYSSYCMGWFRQAPGKEREGVAAIDSDGSTRYADSVKGRFTISKDNAKNTLYLQMNSLKPEDTAMYYCAAEPYCSGGYKRTMVAEFGYWGQGTQVTVSS
notes: Phage clone, periplasmic extract
B2: hIL10Rb VHH-7 (VHH)
VHH: B1 VHH with Y32G, A50T, D52N, R58N, K106P, T108W, M109S
notes: as for B1
B3: hIL10Rb VHH-9 (VHH)
VHH: B1 VHH with S11L, A14P, Y32G, A50T, D52N, R58N, K106P, T108W, M109S
notes: as for B1
B4: hIL10Rb VHH-18 (VHH)
VHH: B1 VHH with Y27D, A50F, K64E, K106H, T108K, M109E, V110M
notes: as for B1
B5: hIL10Rb VHH-14 (VHH)
VHH: B1 VHH with Y32G, A50T, D52N, R58N, A91G, K106P, T108W, M109S
notes: as for B1
B6: hIL10Rb VHH-8 (VHH)
VHH: QVQLQESGGGSVQAGGSLRLSCAASGYSYSSYCMGWFRQAPGKEREGVAAIASDGSTSYADSVKGRFAISKDNAKNTLYLQMASLKPEDTAMYYCAAEPWCTGGYSRLTPAEYGYWGQGTQVTVSS
notes: as for B1
B7: hIL10Rb VHH-11 (VHH)
VHH: B1 VHH with E44G
notes: as for B1
B8: hIL10Rb VHH-23 (VHH)
VHH: B1 VHH with N76K, T77I, P87V, Y115F
notes: as for B1
B9: IL10R binding molecule of SEQ ID NO: 302 (bispecific antibody)
chain: QVQLQESGGGSVQAGGSLRLSCAASGYSNCSYDMTWYRQAPGKEREFVSAIHSDGSTRYADSVKGRFFISQDNAKNTVYLQMNSLKPEDTAMYYCKTDPLHCRAHGGSWYSVRANYWGQGTQVTVSSGGGSQVQLQESGGGSVEAGGSLRLSCAASGYTHSSYCMGWFRQAPGKEREGVAAIDVDGSTTYADSVKGRFTISKDNAKNTLYLQMNSLKPEDTGMYYCAAEFADCSSNYFLPPGAVRYWGQGTQVTVSSASHHHHHH
B10: IL10R binding molecule of SEQ ID NO: 295 (bispecific antibody)
chain: QVQLQESGGGSVQAGGSLRLSCGASGYTYSSYCMGWFRQVPGKEREGVAVIDSDGSTSYADSVKGRFTISKDNGKNTLYLQMNSLKPEDTAMYYCAADLGHYRPPCGVLYLGMDYWGKGTQVTVSSGGGSQVQLQESGGGSVEAGGSLRLSCAASGYTHSSYCMGWFRQAPGKEREGVAAIDVDGSTTYADSVKGRFTISKDNAKNTLYLQMNSLKPEDTGMYYCAAEFADCSSNYFLPPGAVRYWGQGTQVTVSSASHHHHHH
B11: IL10R binding molecule of SEQ ID NO: 298 (bispecific antibody)
chain: QVQLQESGGGSVQAGGSLRLSCAASGYSNCSYDMTWYRQAPGKEREFVSAIHSDGSTRYADSVKGRFFISQDNAKNTVYLQMNSLKPEDTAMYYCKTDPLHCRAHGGSWYSVRANYWGQGTQVTVSSGGGSQVQLQESGGGSVQAGGSLRLSCAASGYTYSSGCMGWFRQAPGKEREAVAAINSDGSTSYADSVKGRFTISKDNAKNTLYLQMNSLKPEDTAMYYCAAEPYCSGGYPRWSVAEFGYWGQGTQVTVSSASHHHHHH
B12: IL10R binding molecule of SEQ ID NO: 296 (bispecific antibody)
chain: QVQLQESGGGSVQAGGSLRLSCGASGYTYSSYCMGWFRQVPGKEREGVAVIDSDGSTSYADSVKGRFTISKDNGKNTLYLQMNSLKPEDTAMYYCAADLGHYRPPCGVLYLGMDYWGKGTQVTVSSGGGSQVQLQESGGGSVQAGGSLRLSCAASGYSYSSYCMGWFRQAPGKEREGVATIDSDGMTRYADSVKGRFTISKDNAKNTLYLQMNSLKPEDTAMYYCAAPLYDCDSGAVGRNPPYWGQGTQVTVSSASHHHHHH
B13: IL10R binding molecule of SEQ ID NO: 303 (bispecific antibody)
chain: QVQLQESGGGSVQAGGSLRLSCAASGYSNCSYDMTWYRQAPGKEREFVSAIHSDGSTRYADSVKGRFFISQDNAKNTVYLQMNSLKPEDTAMYYCKTDPLHCRAHGGSWYSVRANYWGQGTQVTVSSGGGSQVQLQESGGGSVQAGGSLRLSCAASGYSYSSYCMGWFRQAPGKEREGVATIDSDGMTRYADSVKGRFTISKDNAKNTLYLQMNSLKPEDTAMYYCAAPLYDCDSGAVGRNPPYWGQGTQVTVSSASHHHHHH
B14: IL10R binding molecule of SEQ ID NO: 300 (bispecific antibody)
chain: QVQLQESGGGSVQAGGSLRLSCAASGYSNCSYDMTWYRQAPGKEREFVSAIHSDGSTRYADSVKGRFFISQDNAKNTVYLQMNSLKPEDTAMYYCKTDPLHCRAHGGSWYSVRANYWGQGTQVTVSSGGGSQVQLQESGGGSVQAGGSLRLSCAASRYTYNSYCMGWFRQAPGKEREGVATIDSDGMTRYADSVKGRFTISKDNAKNTLYLQMNSLKPEDTAMYYCAADADCTIAAMTTNPLGQGTQVTVSSASHHHHHH
B15: IL10R binding molecule of SEQ ID NO: 299 (bispecific antibody)
chain: QVQLQESGGGSVQAGGSLRLSCAASGYSNCSYDMTWYRQAPGKEREFVSAIHSDGSTRYADSVKGRFFISQDNAKNTVYLQMNSLKPEDTAMYYCKTDPLHCRAHGGSWYSVRANYWGQGTQVTVSSGGGSQVQLQESGGGSVQAGGSLRLSCAASGYTYSSYCMGWFRQAPGKEREGVAHIDSDGSTSYADSVKGRFTISKDNAKNTLYLQMNSLKPEDTAMYYCAADPIPGPGYCDGGPNKYWGQGTQVTVSSASHHHHHH
B16: IL10R binding molecule of SEQ ID NO: 297 (bispecific antibody)
chain: QVQLQESGGGSVQAGGSLRLSCGASGYTYSSYCMGWFRQVPGKEREGVAVIDSDGSTSYADSVKGRFTISKDNGKNTLYLQMNSLKPEDTAMYYCAADLGHYRPPCGVLYLGMDYWGKGTQVTVSSGGGSQVQLQESGGGSVQTGGSLRLSCAASGYTYLRGCMGWFRQAPGKEREGVAVMDVVGDRRSYIDSVKGRFTISRDNAANSVYLQMDNLKPEDTAMYYCTAGPNCVGWRSGLDYWGQGTQVTVSSASHHHHHH
B17: hIL10Rb VHH-5 (VHH)
VHH: QVQLQESGGGLVQPGGSLRLSCAASGYTYSSYCMGWFRQAPGKEREGVAHIDSDGSTTYADSVKGRFTISKDNAKNTLYLQMNSLKPEDTAMYYCAADPIPGPGYCDGGPNKYWGQGTQVTVSS
notes: as for B1
B18: hIL10Rb VHH-10 (VHH)
VHH: B17 VHH with T68A
notes: as for B1
B19: hIL10Rb VHH-24 (VHH)
VHH: B17 VHH with L11S, P14A, R19K, K112N
notes: as for B1
B20: hIL10Rb VHH-25 (VHH)
VHH: B17 VHH with L11S, P14A, V48I, K112N
notes: as for B1
B21: hIL10Rb VHH-22 (VHH)
VHH: B17 VHH with L11S, P14A, Y29D, S31R, Q39K, T58S
notes: as for B1
B22: hIL10Rb VHH-20 (VHH)
VHH: B17 VHH with L11S, P14A, T68A
notes: as for B1
B23: hIL10Rb VHH-13 (VHH)
VHH: B17 VHH with L11S, P14A, T58S, K112N
notes: as for B1
B24: IL10R binding molecule of SEQ ID NO: 301 (bispecific antibody)
chain: QVQLQESGGGSVQAGGSLRLSCAASGYSNCSYDMTWYRQAPGKEREFVSAIHSDGSTRYADSVKGRFFISQDNAKNTVYLQMNSLKPEDTAMYYCKTDPLHCRAHGGSWYSVRANYWGQGTQVTVSSGGGSQVQLQESGGGSVQAGGSLRLSCTVSRYTASVNYMGWFRQAPGKEREGVATIFTGAGTTYYANSVKGRFTISRDNAKNTAYLQMNSLKPEDTAIYYCAVDFRGGLLYRPAYEYTYRGQGTQVTVSSASHHHHHH

Legend:
hIL10Rb ECD antigen = target: T1, hIL10Rb ECD antigen; experiment: periplasmic extract ELISA (PE-ELISA) of phage clones
[1] = target: T2, human IL-10 receptor (hIL-10R alpha and …); experiment: cell-based or functional assay

Row | Binder | binding result (hIL10Rb ECD antigen) | Abs 630 (25 nM) [1] | Abs 630 (100 nM) [1]
1 | B1 | binds | – | –
2 | B2 | binds | – | –
3 | B3 | binds | – | –
4 | B4 | binds | – | –
5 | B5 | binds | – | –
6 | B6 | binds | – | –
7 | B7 | binds | – | –
8 | B8 | binds | – | –
9 | B9 | – | 1.98 Abs 630 | 2.09 Abs 630
10 | B10 | – | 0.72 Abs 630 | 0.46 Abs 630
11 | B11 | – | 0.84 Abs 630 | 0.38 Abs 630
12 | B12 | – | 0.54 Abs 630 | 0.38 Abs 630
13 | B13 | – | 1.92 Abs 630 | 1.93 Abs 630
14 | B14 | – | 2.08 Abs 630 | 2.11 Abs 630
15 | B15 | – | 0.47 Abs 630 | 0.37 Abs 630
16 | B16 | – | 0.46 Abs 630 | 0.36 Abs 630
17 | B17 | binds | – | –
18 | B18 | binds | – | –
19 | B19 | binds | – | –
20 | B20 | binds | – | –
21 | B21 | binds | – | –
22 | B22 | binds | – | –
23 | B23 | binds | – | –
24 | B24 | – | 2.05 Abs 630 | 1.91 Abs 630
